The record followed here is patent US20200247855A1 (published 2020).

Where a chain is given by its changes, count along the chain named. Where two headings read alike, the source gives them in different places.

One experiment has as its target CXCL6_HUMAN. The experiment can be described thus: BLI.
The target of the next experiment is CXCL5_HUMAN. The experiment can be described thus: BLI.
The next experiment has as its target CXCL2_HUMAN. The experiment can be described thus: BLI.
Experiment [1] has as its target CXCL2. Nature of the experiment: BLI.
For experiment [2], the target named is CXCL6. The experiment can be described thus: BLI.
Experiment [3] addresses CXCL5. The experiment can be described thus: BLI.
For experiment [4], the target named is T1, CXCL3_HUMAN (human, UniProt P19876 35-107). Nature of the experiment: BLI; previously obtained data.
The target in experiment [5] is T2, CXCL1_HUMAN (human, UniProt P09341 35-107). The experiment can be described thus: BLI.
Experiment [6] deals with T3, CXCL8_HUMAN (human, UniProt P10145 28-99). The experiment can be described thus: BLI.
The target in experiment [7] is T1, CXCL3_HUMAN. Nature of the experiment: BLI.
Experiment [8] has as its target T2, CXCL1_HUMAN. Nature of the experiment: BLI. This is another data set of the same source.
Experiment [9] deals with T3, CXCL8_HUMAN. Nature of the experiment: BLI. This is another data set of the same source.
Experiment [10] addresses CXCL6. Nature of the experiment: BLI; previously obtained data.
Experiment [11] concerns the target CXCL2. Nature of the experiment: BLI. The source holds these as a separate data set.
Experiment [12] addresses CXCL5. The experiment can be described thus: BLI. This is another data set of the same source.
The next experiment concerns the target T4, CCL15_HUMAN (human, UniProt Q16663 22-113).
T4 chain: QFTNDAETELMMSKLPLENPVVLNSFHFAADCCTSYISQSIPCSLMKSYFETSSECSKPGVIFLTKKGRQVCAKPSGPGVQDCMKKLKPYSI
Nature of the experiment: BLI.

A further experiment deals with T5, CCL19_HUMAN (human, UniProt Q99731 22-98).
T5 chain: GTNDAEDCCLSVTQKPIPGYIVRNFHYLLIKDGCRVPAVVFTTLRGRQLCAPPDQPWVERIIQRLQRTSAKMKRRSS
Nature of the experiment: BLI.

The target of another experiment is T6, CCL3_HUMAN (human, UniProt P10147 24-92).
T6 chain: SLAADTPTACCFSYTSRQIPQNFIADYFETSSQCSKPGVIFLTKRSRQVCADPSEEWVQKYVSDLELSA
The experiment can be described thus: BLI.

Another experiment deals with CCL11_HUMAN (human, UniProt P51671 24-97). The experiment can be described thus: BLI.
The target of a further experiment is T7, CCL23_HUMAN (human, UniProt P55773 22-120).
T7 chain: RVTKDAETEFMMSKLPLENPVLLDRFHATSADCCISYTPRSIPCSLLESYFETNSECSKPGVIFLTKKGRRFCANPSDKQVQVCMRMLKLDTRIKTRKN
The experiment can be described thus: BLI.

The next experiment concerns the target T8, CCL17_HUMAN (human, UniProt Q92583 24-94).
T8 chain: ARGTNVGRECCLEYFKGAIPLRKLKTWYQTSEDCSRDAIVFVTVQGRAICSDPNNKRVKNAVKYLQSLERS
The experiment can be described thus: BLI.

For the next experiment, the target named is T9, CCL3L1_HUMAN (human, UniProt P16619 24-93).
T9 chain: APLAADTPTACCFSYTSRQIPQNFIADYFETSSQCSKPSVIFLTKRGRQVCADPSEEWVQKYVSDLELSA
Nature of the experiment: BLI.

A further experiment has as its target T10, CCL18_HUMAN (human, UniProt P55774 21-89).
T10 chain: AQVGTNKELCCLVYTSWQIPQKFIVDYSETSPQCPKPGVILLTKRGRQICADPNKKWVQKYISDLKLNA
Nature of the experiment: BLI.

A further experiment concerns the target T11, CCL5_HUMAN (human, UniProt P13501 24-91).
T11 chain: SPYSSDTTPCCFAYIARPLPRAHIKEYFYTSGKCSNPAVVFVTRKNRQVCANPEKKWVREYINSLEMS
The experiment can be described thus: BLI.

The next experiment concerns the target T12, CCL21_HUMAN (human, UniProt O00585 24-134).
T12 chain: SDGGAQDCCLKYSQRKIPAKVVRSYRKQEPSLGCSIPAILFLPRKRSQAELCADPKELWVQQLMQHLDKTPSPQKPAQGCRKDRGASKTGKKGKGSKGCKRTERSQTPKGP
Nature of the experiment: BLI.

In another experiment the target is CCL7_HUMAN (human, UniProt P80098 24-99). Nature of the experiment: BLI.
The next experiment deals with T13, CCL24_HUMAN (human, UniProt O00175 27-104).
T13 chain: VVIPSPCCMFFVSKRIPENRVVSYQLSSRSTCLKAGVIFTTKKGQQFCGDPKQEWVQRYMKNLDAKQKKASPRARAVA
The experiment can be described thus: BLI.

The target in another experiment is T14, CCL14_HUMAN (human, UniProt Q16627 22-93).
T14 chain: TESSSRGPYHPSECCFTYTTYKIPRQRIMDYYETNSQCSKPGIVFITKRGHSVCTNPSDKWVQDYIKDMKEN
Nature of the experiment: BLI.

A further experiment has as its target CCL2_HUMAN (human, UniProt P13500 24-99). The experiment can be described thus: BLI.
The next experiment has as its target T15, CCL22_HUMAN (human, UniProt O00626 25-93).
T15 chain: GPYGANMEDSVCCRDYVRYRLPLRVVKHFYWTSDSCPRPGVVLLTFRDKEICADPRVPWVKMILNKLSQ
The experiment can be described thus: BLI.

Another experiment has as its target T16, CCL16_HUMAN (human, UniProt O15467 24-120).
T16 chain: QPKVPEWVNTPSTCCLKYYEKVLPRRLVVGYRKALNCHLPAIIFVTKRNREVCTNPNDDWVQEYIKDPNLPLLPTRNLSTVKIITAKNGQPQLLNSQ
The experiment can be described thus: BLI.

The target in another experiment is CCL13_HUMAN (human, UniProt Q99616 24-98). Nature of the experiment: BLI.
The target in a further experiment is T17, CCL4_HUMAN (human, UniProt P13236 24-92).
T17 chain: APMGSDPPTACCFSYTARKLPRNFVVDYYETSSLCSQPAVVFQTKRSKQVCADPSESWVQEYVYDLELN
Nature of the experiment: BLI.

A further experiment addresses CCL20_HUMAN (human, UniProt P78556 27-96). Nature of the experiment: BLI.
The next experiment deals with T18, CCL8_HUMAN (human, UniProt P80075 24-99).
T18 chain: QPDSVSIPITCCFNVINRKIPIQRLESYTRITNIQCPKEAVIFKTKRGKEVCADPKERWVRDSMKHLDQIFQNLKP
The experiment can be described thus: BLI.

The target in another experiment is T19, CCL4L1_HUMAN (human, UniProt Q8NHW4 24-92).
T19 chain: T17 chain with S47G
The experiment can be described thus: BLI.

The next experiment deals with T20, CCL1_HUMAN (human, UniProt P22362 24-96).
T20 chain: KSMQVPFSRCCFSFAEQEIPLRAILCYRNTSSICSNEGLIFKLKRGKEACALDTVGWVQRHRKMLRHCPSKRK
The experiment can be described thus: BLI.

T1 sequence (P19876 35-107): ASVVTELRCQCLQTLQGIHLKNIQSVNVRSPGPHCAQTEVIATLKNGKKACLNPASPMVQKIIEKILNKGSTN
T3 sequence (P10145 28-99): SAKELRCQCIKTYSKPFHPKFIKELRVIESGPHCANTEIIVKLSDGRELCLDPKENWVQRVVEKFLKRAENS
T2 sequence (P09341 35-107): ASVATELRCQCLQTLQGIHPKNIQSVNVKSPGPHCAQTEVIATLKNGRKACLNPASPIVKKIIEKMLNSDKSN
Sequence of CCL13_HUMAN (Q99616 24-98): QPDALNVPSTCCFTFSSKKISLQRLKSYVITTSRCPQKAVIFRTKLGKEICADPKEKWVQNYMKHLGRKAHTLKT
Sequence of CCL2_HUMAN (P13500 24-99): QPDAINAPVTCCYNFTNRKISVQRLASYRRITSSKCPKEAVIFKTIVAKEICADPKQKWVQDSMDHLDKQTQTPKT
Sequence of CCL11_HUMAN (P51671 24-97): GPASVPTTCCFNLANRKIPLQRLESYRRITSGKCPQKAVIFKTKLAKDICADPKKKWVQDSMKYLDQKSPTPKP
Sequence of CCL20_HUMAN (P78556 27-96): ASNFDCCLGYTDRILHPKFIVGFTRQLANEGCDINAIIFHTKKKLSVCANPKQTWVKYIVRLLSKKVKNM
Sequence of CCL7_HUMAN (P80098 24-99): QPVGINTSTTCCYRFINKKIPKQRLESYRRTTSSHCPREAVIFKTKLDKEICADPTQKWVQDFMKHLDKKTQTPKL

B1: P1156_IXORI (other)
chain: ADDDNELFTVQYCGMNCTKDEGGTWTGCTGKKEGCKCYHESGKNYGLCLSTEYTDFSQYGNPSDSEIEAAKPKRSDTLSH
Take B1: the Kd was determined as 117 nM with CXCL6_HUMAN; 71.9 nM with CXCL5_HUMAN; 17 nM with CXCL2_HUMAN; 50.6 nM with CXCL2 [1]; 62.7 nM with CXCL6 [2]; 29.8 nM with CXCL5 [3]. Besides, the Kd with CXCL3_HUMAN [4] worked out at 70.4 nM; with CXCL1_HUMAN [5] it was 5.8 nM; with CXCL8_HUMAN [6] it was 2.9 nM; with CXCL3_HUMAN [7], 70.4 nM; in the experiment with CXCL1_HUMAN [8], 6.53 nM; with CXCL8_HUMAN [9], 4.84 nM.

B2: P1156 (other)
chain: B1 chain
On to B2, for which the Kd was found to be 62.7 nM in the experiment with CXCL6 [10], 30.3 nM in the experiment with CXCL2 [11] and 39.9 nM in the experiment with CXCL5 [12].

B3: P991_AMBCA (other)
chain: ENGEGTTQPDYDNSTDYYNYEDFKCTCPAPHLNNTNGTVMKPIGCYYTCNVTRCTAPDTYPCYNLTEHQAKNLTTSPTTLCAVGNCDHGICVPNGTKELCFKAPNLEE
Consider B3, for which the Kd with CCL15_HUMAN amounted to 109 nM; with CCL19_HUMAN, 12 nM; with CCL3_HUMAN it was 2.24 nM; with CCL11_HUMAN, 1.9 nM; in the experiment with CCL23_HUMAN, 5.87 nM; in the experiment with CCL17_HUMAN, 7.37 nM. Besides, the Kd is 2.99 nM in the experiment with CCL3L1_HUMAN; 0.252 nM in the experiment with CCL18_HUMAN; 0.869 nM in the experiment with CCL5_HUMAN; 26.1 nM with CCL21_HUMAN; 0.241 nM with CCL7_HUMAN; 5.42 nM with CCL24_HUMAN. For the same molecule, the Kd in the experiment with CCL14_HUMAN came out at 0.711 nM; with CCL2_HUMAN, 24.7 nM; with CCL22_HUMAN it was 3.01 nM; with CCL16_HUMAN, 0.536 nM; with CCL13_HUMAN, 0.191 nM; in the experiment with CCL4_HUMAN, 3.68 nM. For the same molecule, the Kd with CCL20_HUMAN turned out to be 15.4 nM; in the experiment with CCL8_HUMAN, 15.9 nM; in the experiment with CCL4L1_HUMAN it was 1.34 nM; in the experiment with CCL1_HUMAN, 8.6 nM.
